Assay results: publication PMC524172, “Yellaboina Sailu 1 sailu@cdfd.org.in”

T1: IdeR (iron-dependent regulator) (Mycobacterium tuberculosis, UniProt P9WMH1 1-230)
T1 sequence: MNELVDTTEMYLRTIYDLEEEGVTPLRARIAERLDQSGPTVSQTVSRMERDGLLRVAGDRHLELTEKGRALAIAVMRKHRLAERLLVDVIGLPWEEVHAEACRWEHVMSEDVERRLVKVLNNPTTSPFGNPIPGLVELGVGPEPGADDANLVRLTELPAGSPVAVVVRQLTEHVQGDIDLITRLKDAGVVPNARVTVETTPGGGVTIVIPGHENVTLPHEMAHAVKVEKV

B1: DIP0699 motif (secA) (dsDNA)
DNA 1: TTGTGTTAGCCTAGGCTAA
DNA 2: TTAGCCTAGGCTAACACAA
B2: DIP2272 motif (sortase) (dsDNA)
DNA 1: TGTGGGCACACCAACCTAA
DNA 2: TTAGGTTGGTGTGCCCACA
B3: negative control motif (dsDNA)
DNA 1: TTTTCATGACGTCTTCTAA
DNA 2: TTAGAAGACGTCATGAAAA
B4: DIP0586 motif (iucA) (dsDNA)
DNA 1: TTAGGGTAGCTTCGCCTAA
DNA 2: TTAGGCGAAGCTACCCTAA
B5: DIP2161 motif (sidA) (dsDNA)
DNA 1: TTAGGGTAGGCTAATCCAA
DNA 2: TTGGATTAGCCTACCCTAA
B6: DIP2304 motif (FpG) (dsDNA)
DNA 1: TTGGGGTGGCCTATCCTTA
DNA 2: TAAGGATAGGCCACCCCAA

Target: T1, IdeR (iron-dependent regulator)
Test: EMSA; 200 uM Mn2+; 30 pmol IdeR
Settings: protein: recombinant; tags: 6xHis (pRSET vector); chain copies: 4; label: 32P end label; blunt

| Binder | binding result |
| --- | --- |
| B1 | binds |
| B2 | binds |
| B3 | no binding |
| B4 | binds |
| B5 | binds |
| B6 | binds |
